Reference: publication PMC9482650, “Quantitative fragmentomics allow affinity mapping of interactomes” (Nature Communications, 2022)
One block for each binder: values may come before it.

What was measured:
Test in all cases: holdup assay
Parameters in all cases: key: below the threshold = too weak to quantify, mostly under pKd 3.1 to 4
LIN7B, Q9HAP6 = molecular target: T1, LIN7B, Q9HAP6
T1 sequence (Q9HAP6 88-185, limits assumed, looked up): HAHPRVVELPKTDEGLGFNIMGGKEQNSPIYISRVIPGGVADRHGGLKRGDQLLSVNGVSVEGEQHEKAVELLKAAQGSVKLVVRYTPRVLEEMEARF

Inadl_5, Q8NI35 = molecular target: Inadl_5, Q8NI35
Inadl_5, Q8NI35, sequence (Q8NI35 673-780): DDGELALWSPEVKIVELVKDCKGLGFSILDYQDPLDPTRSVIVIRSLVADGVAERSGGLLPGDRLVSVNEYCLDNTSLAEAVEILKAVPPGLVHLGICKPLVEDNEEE

DLG3_2, Q92796 = molecular target: T2, DLG3_2, Q92796
T2 sequence (Q92796 221-321, limits assumed, looked up): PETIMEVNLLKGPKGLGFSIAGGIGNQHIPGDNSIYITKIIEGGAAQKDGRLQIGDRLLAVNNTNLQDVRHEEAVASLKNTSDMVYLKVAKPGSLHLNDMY

GRIP1_7, Q9Y3R0 = molecular target: T3, GRIP1_7, Q9Y3R0
T3 sequence (Q9Y3R0 999-1096, limits assumed, looked up): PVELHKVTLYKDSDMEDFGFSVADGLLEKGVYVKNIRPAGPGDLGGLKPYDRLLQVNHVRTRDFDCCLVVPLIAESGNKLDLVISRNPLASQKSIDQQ

PCLO, Q9Y6V0 = molecular target: T4, PCLO, Q9Y6V0
T4 sequence (Q9Y6V0 4491-4600, limits assumed, looked up): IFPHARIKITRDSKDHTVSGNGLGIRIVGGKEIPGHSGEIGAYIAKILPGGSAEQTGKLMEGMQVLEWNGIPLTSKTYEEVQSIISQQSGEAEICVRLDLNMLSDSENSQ

DFNB31_1, Q9P202 = molecular target: T5, DFNB31_1, Q9P202
T5 sequence (Q9P202 135-233, limits assumed, looked up): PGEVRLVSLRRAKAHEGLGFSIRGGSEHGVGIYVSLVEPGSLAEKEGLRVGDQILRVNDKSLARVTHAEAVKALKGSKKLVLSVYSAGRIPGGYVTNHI

DLG1_1, Q12959 = molecular target: DLG1_1, Q12959
GORASP1, Q9BQQ3 = molecular target: GORASP1, Q9BQQ3
GORASP1, Q9BQQ3, sequence (Q9BQQ3 1-208): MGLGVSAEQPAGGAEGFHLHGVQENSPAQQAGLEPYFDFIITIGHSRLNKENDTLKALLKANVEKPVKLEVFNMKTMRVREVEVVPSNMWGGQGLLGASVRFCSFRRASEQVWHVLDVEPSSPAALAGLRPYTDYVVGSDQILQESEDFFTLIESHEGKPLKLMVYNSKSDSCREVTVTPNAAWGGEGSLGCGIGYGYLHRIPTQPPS

APBA2_1, Q99767 = molecular target: T6, APBA2_1, Q99767
T6 sequence (Q99767 563-664, limits assumed, looked up): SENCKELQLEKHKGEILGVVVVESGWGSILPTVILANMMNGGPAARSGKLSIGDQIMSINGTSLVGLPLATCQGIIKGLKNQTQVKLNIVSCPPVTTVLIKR

SNTB1, Q13884 = molecular target: T7, SNTB1, Q13884
T7 sequence (Q13884 107-205, limits assumed, looked up): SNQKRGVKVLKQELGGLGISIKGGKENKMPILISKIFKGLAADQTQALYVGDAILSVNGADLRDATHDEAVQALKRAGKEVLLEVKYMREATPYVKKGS

LNX1_3, Q8TBB1 = molecular target: LNX1_3, Q8TBB1
LNX1_3, Q8TBB1, sequence (Q8TBB1 500-596): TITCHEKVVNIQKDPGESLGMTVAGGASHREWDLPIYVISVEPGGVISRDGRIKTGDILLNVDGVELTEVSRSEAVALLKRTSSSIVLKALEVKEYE

Inadl_9, Q8NI35 = molecular target: Inadl_9, Q8NI35
Inadl_9, Q8NI35, sequence (Q8NI35 1530-1615): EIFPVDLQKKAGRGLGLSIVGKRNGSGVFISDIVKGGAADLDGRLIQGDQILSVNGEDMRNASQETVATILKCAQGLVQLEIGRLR

HTRA3, P83110 = molecular target: T8, HTRA3, P83110
T8 sequence (P83110 354-453, limits assumed, looked up): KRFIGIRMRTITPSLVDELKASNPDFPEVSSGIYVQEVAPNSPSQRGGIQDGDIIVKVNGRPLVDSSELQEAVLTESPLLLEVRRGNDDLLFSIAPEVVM

DLG2_3, Q15700 = molecular target: DLG2_3, Q15700
SCRIB_3, Q14160 = molecular target: SCRIB_3, Q14160
SCRIB_3, Q14160, sequence (Q14160 999-1103): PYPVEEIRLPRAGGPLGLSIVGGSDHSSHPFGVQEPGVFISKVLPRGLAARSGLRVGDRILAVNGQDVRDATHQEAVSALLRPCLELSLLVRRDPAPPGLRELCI

Inadl_10, Q8NI35 = molecular target: Inadl_10, Q8NI35
Inadl_10, Q8NI35, sequence (Q8NI35 1673-1763): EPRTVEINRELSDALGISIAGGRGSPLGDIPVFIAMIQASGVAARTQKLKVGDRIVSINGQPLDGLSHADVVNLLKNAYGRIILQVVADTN

PDZRN4_1, Q6ZMN7 = molecular target: PDZRN4_1, Q6ZMN7
PDZRN4_1, Q6ZMN7, sequence (Q6ZMN7 213-318): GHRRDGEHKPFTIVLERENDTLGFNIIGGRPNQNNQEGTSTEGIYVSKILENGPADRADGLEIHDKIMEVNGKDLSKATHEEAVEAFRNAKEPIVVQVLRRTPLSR

AHNAK1, Q09666 = molecular target: AHNAK1, Q09666
AHNAK1, Q09666, sequence (Q09666 4-100): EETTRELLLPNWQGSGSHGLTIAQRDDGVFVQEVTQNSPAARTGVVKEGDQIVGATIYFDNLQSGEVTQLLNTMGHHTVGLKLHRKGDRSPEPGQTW

GRIP1_4, Q9Y3R0 = molecular target: T9, GRIP1_4, Q9Y3R0
T9 sequence (Q9Y3R0 467-571, limits assumed, looked up): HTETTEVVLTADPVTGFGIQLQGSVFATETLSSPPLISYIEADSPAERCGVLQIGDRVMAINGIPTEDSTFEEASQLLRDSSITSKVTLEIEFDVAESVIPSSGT

PICK1, Q9NRD5 = molecular target: PICK1, Q9NRD5
PICK1, Q9NRD5, sequence (Q9NRD5 17-115): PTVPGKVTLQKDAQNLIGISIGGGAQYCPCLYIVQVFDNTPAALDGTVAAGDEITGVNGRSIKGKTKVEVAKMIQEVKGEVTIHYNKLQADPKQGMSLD

DLG1_2, Q12959 = molecular target: DLG1_2, Q12959
PDZD2_2, O15018 = molecular target: T10, PDZD2_2, O15018
T10 sequence (O15018 329-429, limits assumed, looked up): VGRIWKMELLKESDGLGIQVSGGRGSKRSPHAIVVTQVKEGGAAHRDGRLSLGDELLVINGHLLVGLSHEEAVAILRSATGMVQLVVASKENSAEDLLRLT

GRIP1_3, Q9Y3R0 = molecular target: T11, GRIP1_3, Q9Y3R0
T11 sequence (Q9Y3R0 247-346, limits assumed, looked up): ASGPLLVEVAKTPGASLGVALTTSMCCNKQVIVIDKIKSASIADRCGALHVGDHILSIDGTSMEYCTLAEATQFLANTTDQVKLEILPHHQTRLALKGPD

Inadl_1, Q8NI35 = molecular target: Inadl_1, Q8NI35
Inadl_1, Q8NI35, sequence (Q8NI35 113-229): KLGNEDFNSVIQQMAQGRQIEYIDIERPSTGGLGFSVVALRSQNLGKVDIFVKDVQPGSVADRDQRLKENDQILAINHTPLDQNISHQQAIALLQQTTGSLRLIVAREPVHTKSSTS

NHERF4_1, Q86UT5-2 = molecular target: NHERF4_1, Q86UT5-2
NHERF4_1, Q86UT5-2, sequence (Q86UT5 other isoform, or with tags, fused parts or gaps): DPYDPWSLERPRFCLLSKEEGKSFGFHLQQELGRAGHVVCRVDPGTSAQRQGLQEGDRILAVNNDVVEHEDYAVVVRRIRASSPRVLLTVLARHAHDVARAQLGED

MPP7, Q5T2T1 = molecular target: T12, MPP7, Q5T2T1
T12 sequence (Q5T2T1 134-230, limits assumed, looked up): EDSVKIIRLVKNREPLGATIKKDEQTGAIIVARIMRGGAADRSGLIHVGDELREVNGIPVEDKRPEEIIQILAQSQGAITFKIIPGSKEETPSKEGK

[1] = plain residues with an end cap or a label only (N-terminal biotin on a linker: gsgsgs; C-terminal amide)
[2] = plain residues with an end cap or a label only (N-terminal biotin on a linker: ado-ado)
[3] = plain residues with an end cap or a label only (N-terminal biotin on a linker: ttds)

pKd (LIN7B, Q9HAP6; [1]): 3.67 | pKd (Inadl_5, Q8NI35; [1]): below the threshold | pKd (DLG3_2, Q92796; [1]): 4.16 | pKd (GRIP1_7, Q9Y3R0; [1]): below the threshold | pKd (PCLO, Q9Y6V0; [1]): below the threshold | pKd (DFNB31_1, Q9P202; [1]): below the threshold | pKd (DLG1_1, Q12959; [1]): below the threshold | pKd (GORASP1, Q9BQQ3; [1]): below the threshold | pKd (APBA2_1, Q99767; [1]): below the threshold | pKd (SNTB1, Q13884; [1]): below the threshold | pKd (LNX1_3, Q8TBB1; [1]): below the threshold | pKd (Inadl_9, Q8NI35; [1]): below the threshold | pKd (HTRA3, P83110; [1]): below the threshold | pKd (DLG2_3, Q15700; [1]): 3.69 | pKd (SCRIB_3, Q14160; [1]): below the threshold | pKd (Inadl_10, Q8NI35; [1]): below the threshold | pKd (PDZRN4_1, Q6ZMN7; [1]): below the threshold | pKd (AHNAK1, Q09666; [1]): below the threshold | pKd (GRIP1_4, Q9Y3R0; [1]): below the threshold | pKd (PICK1, Q9NRD5; [1]): below the threshold | pKd (DLG1_2, Q12959; [1]): below the threshold | pKd (PDZD2_2, O15018; [1]): below the threshold | pKd (GRIP1_3, Q9Y3R0; [1]): below the threshold | pKd (Inadl_1, Q8NI35; [1]): below the threshold | pKd (NHERF4_1, Q86UT5-2; [1]): below the threshold | pKd (MPP7, Q5T2T1; [1]): below the threshold
Binder: ELIQDTSTSFSTTREW [ARAP3_int, Q8WWN8]

pKd (LIN7B, Q9HAP6; [2]): below the threshold | pKd (Inadl_5, Q8NI35; [2]): 4.04 | pKd (DLG3_2, Q92796; [2]): below the threshold | pKd (GRIP1_7, Q9Y3R0; [2]): 3.49 | pKd (PCLO, Q9Y6V0; [2]): below the threshold | pKd (DFNB31_1, Q9P202; [2]): 3.53 | pKd (DLG1_1, Q12959; [2]): below the threshold | pKd (GORASP1, Q9BQQ3; [2]): 4.23 | pKd (APBA2_1, Q99767; [2]): below the threshold | pKd (SNTB1, Q13884; [2]): below the threshold | pKd (LNX1_3, Q8TBB1; [2]): 3.48 | pKd (Inadl_9, Q8NI35; [2]): 4.37 | pKd (HTRA3, P83110; [2]): 3.58 | pKd (DLG2_3, Q15700; [2]): below the threshold | pKd (SCRIB_3, Q14160; [2]): 3.53 | pKd (Inadl_10, Q8NI35; [2]): below the threshold | pKd (PDZRN4_1, Q6ZMN7; [2]): 3.57 | pKd (AHNAK1, Q09666; [2]): below the threshold | pKd (GRIP1_4, Q9Y3R0; [2]): below the threshold | pKd (PICK1, Q9NRD5; [2]): 3.56 | pKd (DLG1_2, Q12959; [2]): 3.6 | pKd (PDZD2_2, O15018; [2]): below the threshold | pKd (GRIP1_3, Q9Y3R0; [2]): below the threshold | pKd (Inadl_1, Q8NI35; [2]): below the threshold | pKd (NHERF4_1, Q86UT5-2; [2]): 3.85 | pKd (MPP7, Q5T2T1; [2]): below the threshold
Binder: LHLHGTGIQV [EPHA7, Q15375]

pKd (LIN7B, Q9HAP6; [3]): below the threshold | pKd (Inadl_5, Q8NI35; [3]): below the threshold | pKd (DLG3_2, Q92796; [3]): below the threshold | pKd (GRIP1_7, Q9Y3R0; [3]): below the threshold | pKd (PCLO, Q9Y6V0; [3]): below the threshold | pKd (DFNB31_1, Q9P202; [3]): 3.5 | pKd (DLG1_1, Q12959; [3]): below the threshold | pKd (GORASP1, Q9BQQ3; [3]): below the threshold | pKd (APBA2_1, Q99767; [3]): below the threshold | pKd (SNTB1, Q13884; [3]): below the threshold | pKd (LNX1_3, Q8TBB1; [3]): below the threshold | pKd (Inadl_9, Q8NI35; [3]): below the threshold | pKd (HTRA3, P83110; [3]): below the threshold | pKd (DLG2_3, Q15700; [3]): below the threshold | pKd (SCRIB_3, Q14160; [3]): below the threshold | pKd (Inadl_10, Q8NI35; [3]): below the threshold | pKd (PDZRN4_1, Q6ZMN7; [3]): below the threshold | pKd (AHNAK1, Q09666; [3]): below the threshold | pKd (GRIP1_4, Q9Y3R0; [3]): below the threshold | pKd (PICK1, Q9NRD5; [3]): below the threshold | pKd (DLG1_2, Q12959; [3]): 3.56 | pKd (PDZD2_2, O15018; [3]): 4.75 | pKd (GRIP1_3, Q9Y3R0; [3]): below the threshold | pKd (Inadl_1, Q8NI35; [3]): below the threshold | pKd (NHERF4_1, Q86UT5-2; [3]): below the threshold | pKd (MPP7, Q5T2T1; [3]): below the threshold
Binder: GGPKEEESPV [SLC16A1, P53985]
